Target: HLA-DR (human)
Assay: cell-based or functional assay

reduction of live mDC1 in human PBMCs after 3 days with antibody, flow cytometry: 59.2% | reduction of live mDC2 in human PBMCs after 3 days with antibody, flow cytometry: 85% | reduction of pDCs in human PBMCs, flow cytometry: 50%
B1: hL243γ4P (IMMU-114), humanized IgG4 anti-HLA-DR antibody (antibody, from a related filing, V domains shown)
VH: QVQLQQSGSELKKPGASVKVSCKASGFTFTNYGMNWVKQAPGQGLKWMGWINTYTREPTYADDFKGRFAFSLDTSVSTAYLQISSLKADDTAVYFCARDITAVVPTGFDYWGQGSLVTVSS
VL: DIQLTQSPSSLSASVGDRVTITCRASENIYSNLAWYRQKPGKAPKLLVFAASNLADGVPSRFSGSGSGTDYTFTISSLQPEDIATYYCQHFWTTPWAFGGGTKLQIKR
